Assays:
HLA-DR2a = target: T1, HLA-DR2a (Homo sapiens, UniProt P01903+Q30154); assay: Antigen presentation assay, HLA-DR2a transfected L-cells; format: cell-based
T1 construct: expressed in transfected cells; host or cells: L-cells
Text: (§1) MBP peptides 30-44, 130-144 and 139-153 were synthesized using L-amino acids and standard F-moc chemistry on an Abimed AMS 422 multiple peptide synthesiser.
(§2) L-cells transfected with either HLA-DQ6, HLA-DR2a or HLA-DR2b, or Mgar cells (EACC, Porton Down, UK) which express HLA-DQ, DP and DR were used as APCs.
(§3) T-cell clones MS 49:D3 and MS17:A2 were generated from MS patients and clone N5:19 was generated from a normal individual. All three clones were DR2 positive.
(§4) Antigen presenting cells were incubated with the various concentrations of peptide and the appropriate T-cells. Proliferation, and therefore activation, of the T-cells was measured by [^3H]-Thymidine incorporation, and expressed as the stimulation index (SI=corrected counts per minute (ccpm) culture containing peptide/ccpm culture without peptide).

HLA-DR2b = target: T2, HLA-DR2b (Homo sapiens, UniProt P01903+P01911); assay: Antigen presentation assay, HLA-DR2b transfected L-cells; format: cell-based
T2 construct: expressed in transfected cells; host or cells: L-cells
Text: as §1, §2, §3, §4

T2 sequence (P01903 26-254): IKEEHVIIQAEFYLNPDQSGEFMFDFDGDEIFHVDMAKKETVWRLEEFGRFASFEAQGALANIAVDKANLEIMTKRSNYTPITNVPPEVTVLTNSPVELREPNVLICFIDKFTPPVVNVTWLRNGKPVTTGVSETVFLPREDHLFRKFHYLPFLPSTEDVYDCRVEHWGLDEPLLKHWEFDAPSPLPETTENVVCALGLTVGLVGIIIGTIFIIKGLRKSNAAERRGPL
T2 sequence (P01911 30-266): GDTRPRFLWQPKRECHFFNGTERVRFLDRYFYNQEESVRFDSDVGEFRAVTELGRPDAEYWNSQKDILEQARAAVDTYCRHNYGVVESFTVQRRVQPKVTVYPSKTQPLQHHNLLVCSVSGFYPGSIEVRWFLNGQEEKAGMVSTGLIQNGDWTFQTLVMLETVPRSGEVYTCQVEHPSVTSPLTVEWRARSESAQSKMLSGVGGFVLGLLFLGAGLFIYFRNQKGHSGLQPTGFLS
T1 sequence (P01903 26-254): as the sequence (P01903 26-254) above
T1 sequence (Q30154 30-266): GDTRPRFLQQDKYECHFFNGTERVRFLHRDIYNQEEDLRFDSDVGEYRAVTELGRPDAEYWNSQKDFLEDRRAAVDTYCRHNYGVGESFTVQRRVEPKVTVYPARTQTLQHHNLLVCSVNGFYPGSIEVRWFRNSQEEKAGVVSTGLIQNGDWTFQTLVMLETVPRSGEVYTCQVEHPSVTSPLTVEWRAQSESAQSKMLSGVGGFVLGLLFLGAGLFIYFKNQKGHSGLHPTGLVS

proliferation of N5:19 T-cell clone, HLA-DR2a transfected L-cells (HLA-DR2a): stimulated proliferation | proliferation of N5:19 T-cell clone, HLA-DR2b transfected L-cells (HLA-DR2b): not
Substance: MBP 139-153: MBP peptide 139-153 synthesized using L-amino acids (RPSQRHGSKYLATAS)

— patent publication US8961986B2, “Peptide composition” (Apitope Technology (Bristol) Limited, priority 2000, dated 2015)
